Reference: patent US9073997B2, “Growth factor antagonists for organ transplant alloimmunity and arteriosclerosis” (VEGENICS PTY LIMITED, priority 2007, dated 2015)

How the values were obtained:
VEGF-C 109 = target: T1, VEGF-C 109 (Homo sapiens, UniProt P49767); assay: Receptor fragment/Fc fusion ligand precipitation binding assay, VEGF-C 109; conditions: tritiated VEGF-C 109 precipitated, analysis of PAGE gels
T1 construct: fragments with 109 residues each (called VEGF-A 109 and VEGF-C 109); His6 (C); made in house; host or cells: 293T cells (labelled supernatant)
T1 sequence (P49767 with tags, fused parts or gaps): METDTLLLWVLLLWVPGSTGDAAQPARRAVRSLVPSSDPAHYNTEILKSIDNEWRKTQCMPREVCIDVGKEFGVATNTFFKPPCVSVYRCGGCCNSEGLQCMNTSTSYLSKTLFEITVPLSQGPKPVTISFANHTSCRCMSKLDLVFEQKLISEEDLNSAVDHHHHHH
Source text: (§1) The binding assays utilized minimal VEGF-A (SEQ ID NOS: 106 and 107) and VEGF-C (SEQ ID NOS: 108 and 109) fragments with 109 residues each (called VEGF-A 109 and VEGF-C 109). These constructs are not naturally occurring, but are effective for binding assays. Other growth factor constructs, either natural or artificial, may also be used for performing these assays.
(§2) Either Tritiated VEGF-A 109 or VEGF-C 109 was used in a given binding experiment. Ligand in solution was precipitated by mixing […] of ligand solution with 100 μl binding mix at 4° C. overnight, with agitation. The ligand solution may be the supernatant of metabolically labeled 293T cells. The binding mixes used for the receptor binding analysis were as follows: for VEGFR-1 binding assays, the binding mix was phosphate buffered saline (PBS) containing 1.5% BSA, 0.06% Tween 20, 3 μg/ml heparin and 400 ng/ml VEGFR-1-Fc fusion protein (100 μl of this binding mix was added to 200 μl of ligand solution). For VEGFR-2 binding assays, the binding mix was 82% conditioned cell supernatant from 293T cells transiently expressing VEGFR-2-Fc fusion protein in mixture with 18% of a PBS solution that contained 5% BSA, 0.2% Tween 20, and 10 μg/ml heparin (250 μl of binding mix was added to 200 μl of ligand solution). For VEGFR-3 binding assays, the binding mix was 82% conditioned cell supernatant from 293T cells transiently expressing VEGFR-3-Fc fusion protein, 18% of PBS containing 5% BSA, 0.2% Tween 20, and 10 μg/ml heparin (250 μl of binding mix was added to 200 μl of ligand solution). To collect precipitated ligand, 50 μl of a 30% protein A sepharose (PAS, Pharmacia) slurry in PBS was added and incubated under agitation for at least 1.5 hr at 4° C. Standard buffer was added to each immunoprecipitation sample and boiled for 5 minutes at 95° C. during which the immunopreciptated proteins become dissociated from the protein A sepharose. After centrifugation, 10 μl of each sample was analyzed on 15% SDS-PAGE under reducing conditions. The gels were dried and exposed for either 12 hours on phosphorimager plates or 4 weeks on X-ray film.
(§3) Tables 3 and 4 identify constructs by name, a DNA and deduced amino acid sequence from the sequence listing, the portion of VEGFR-2 (SEQ ID NO: 4) or VEGFR-3 (SEQ ID NO: 6) amino acid sequence that was included in the constructs, whether the constructs expressed, and, if tested, whether constructs bound ligand. The table data is compiled from analysis of PAGE gels. The asterisk adjacent to the “B*” indicates a “spill-over” from the adjacent lane, as the origin of the bands seen in the “B” lane. A failure to express under the particular experimental conditions used in this instance should not be interpreted as a failure to bind. The experiments can be repeated using different receptor fragments, binding constructs, ligands, or combinations thereof.

VEGF-A 109 = target: T2, VEGF-A 109 (Homo sapiens, UniProt P15692); assay: Receptor fragment/Fc fusion ligand precipitation binding assay, VEGF-A 109; conditions: VEGFR-2 Fc fusion constructs; tritiated VEGF-A 109 precipitated, analysis of PAGE gels
T2 construct: fragments with 109 residues each (called VEGF-A 109 and VEGF-C 109); His6 (C); made in house; host or cells: 293T cells (labelled supernatant)
T2 sequence (P15692 with tags, fused parts or gaps): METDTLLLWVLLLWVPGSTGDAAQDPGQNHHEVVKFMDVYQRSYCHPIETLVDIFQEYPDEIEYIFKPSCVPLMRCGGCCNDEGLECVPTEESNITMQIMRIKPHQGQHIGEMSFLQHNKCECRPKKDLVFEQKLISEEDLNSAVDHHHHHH
Source text: as §1, §2, §3

VEGF-A165 = target: T3, VEGF-A165 (Homo sapiens, UniProt P15692); assay: Ligand binding analysis of chimeric VEGF receptor/hIgG1Fc fusions, VEGF-A165; conditions: for binding to VEGF-A: 35S-labeled VEGF-A165 precipitated with conditioned medium of 293T cells, SDS-PAGE
T3 construct: made in house; host or cells: 293T cells, transient transfection, 35S-labelled conditioned medium
T3 sequence (P15692 27-191 isoform P15692-4): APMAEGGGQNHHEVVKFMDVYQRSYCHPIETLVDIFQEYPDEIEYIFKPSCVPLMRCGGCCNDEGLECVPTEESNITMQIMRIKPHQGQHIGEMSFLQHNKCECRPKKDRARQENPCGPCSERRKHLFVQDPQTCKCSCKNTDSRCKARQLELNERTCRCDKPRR
Protocol: (§4) For expression analysis, the two new chimeric VEGF receptors and control constructs expressing R-1D1-3/hIgG1Fc, R-2D1-3/hIgG1Fc, R-3D1-3/hIgG1Fc, mature VEGF-C and VEGF-A165 were transiently transfected into 293T cells using JetPEI (QBioGene/MP Biomedicals, Irvine, Calif.). Metabolic labeling with ^35S-methionine and ^35S-cysteine was carried out at 48 hours post-transfection and labeling maintained for 24 hours. The serum-free conditioned medium was then immunoprecipitated using Protein A sepharose and either: a) specific antiserum against human mature VEGF-C; b) goat polyclonal antibody against human VEGF-A (R&D systems, Minneapolis, Minn.); or, c) serum-free medium of 293T cells taken 48 to 72 hours post-transient transfection with VEGF receptor/hIgG1Fc proteins (control proteins, R-1D1-3, R-2D1-3, R-3D1-3; chimeric proteins, R-3D1-R2D2+3 and R-3D1-R2D2-R1D3).
(§5) The immunoprecipitated fractions were analyzed on 17% SDS-PAGE and the dried gels were exposed for 12 hours on phosphoimager plates or 36 hours on X-ray films.
(§6) Ligand binding analysis was performed as described for the VEGF-C/VEGF-A hybrid growth factors in Example 1. Briefly, the unlabeled conditioned medium of transiently transfected 293T cells expressing the chimeric VEGFR/IgG1Fc fusion proteins was used to precipitate the ^35S metabolically labeled mature VEGF-C, full-length VEGF-C, and VEGF-A165.

[1] = system: mature VEGF-C, full-length VEGF-C; assay: Ligand binding analysis of chimeric VEGF receptor/hIgG1Fc fusions, VEGF-C; set-up: species or system human; conditions: 35S-labeled mature and full-length VEGF-C precipitated with conditioned medium of 293T cells, SDS-PAGE
mature VEGF-C, full-length VEGF-C, sequence (P49767 112-227 limits assumed): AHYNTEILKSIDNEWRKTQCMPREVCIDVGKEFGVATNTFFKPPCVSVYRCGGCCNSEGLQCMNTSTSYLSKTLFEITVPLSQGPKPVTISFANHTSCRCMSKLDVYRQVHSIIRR
Protocol: as §4, §5, §6

| Substance | Binds VEGF-C (VEGF-C 109; VEGFR-2 Fc fusion constructs) | Binds VEGF-A (VEGF-A 109) | Binds VEGF-C (VEGF-C 109; VEGFR-3 Fc fusion constructs) | other results |
| --- | --- | --- | --- | --- |
| R-2 A: Fc fusion of VEGFR-2 (SEQ ID NO: 4) residues 24-326 with CD33 signal peptide; SEQ ID NOS: 7 and 8 | Yes | Yes | – | – |
| R-2 B: Fc fusion of VEGFR-2 residues 24-220 with CD33 signal peptide; SEQ ID NOS: 9 and 10 | No | No | – | – |
| R-2 C: Fc fusion of VEGFR-2 residues 24-226 with CD33 signal peptide; SEQ ID NOS: 11 and 12 | No | No | – | – |
| R-2 D: Fc fusion of VEGFR-2 residues 24-232 with CD33 signal peptide; SEQ ID NOS: 13 and 14 | No | No | – | – |
| R-2 E: Fc fusion of VEGFR-2 residues 24-241 with CD33 signal peptide; SEQ ID NOS: 15 and 16 | No | No | – | – |
| R-2 F: Fc fusion of VEGFR-2 residues 24-122 with CD33 signal peptide; SEQ ID NOS: 17 and 18 | No | No | – | – |
| R-2 G: Fc fusion of VEGFR-2 residues 118-326 with CD33 signal peptide; SEQ ID NOS: 19 and 20 | Yes | Yes | – | – |
| R-2 H: Fc fusion of VEGFR-2 residues 118-220 with CD33 signal peptide; SEQ ID NOS: 21 and 22 | Yes | No | – | Binds VEGF-C (VEGF-C 109; VEGFR-2 Fc fusion constructs, listed as R-2H): sufficient for VEGF-C binding |
| R-2 I: Fc fusion of VEGFR-2 residues 118-226 with CD33 signal peptide; SEQ ID NOS: 23 and 24 | Weak | No | – | – |
| R-2 J: Fc fusion of VEGFR-2 residues 118-232 with CD33 signal peptide; SEQ ID NOS: 25 and 26 | Very | No | – | – |
| R-2 K: Fc fusion of VEGFR-2 residues 118-241 with CD33 signal peptide; SEQ ID NOS: 27 and 28 | No | No | – | – |
| R-2 L: Fc fusion of VEGFR-2 residues 220-326 with CD33 signal peptide; SEQ ID NOS: 29 and 30 | No | No | – | – |
| R-3 B: Fc fusion of VEGFR-3 residues 138-226 with CD33 signal peptide; SEQ ID NOS: 33 and 34 | – | – | Yes | – |
| R-3 C: Fc fusion of VEGFR-3 residues 1-229; SEQ ID NOS: 35 and 36 | – | – | Yes | – |
| R-3 D: Fc fusion of VEGFR-3 residues 1-226; SEQ ID NOS: 37 and 38 | – | – | Yes | – |
| R-3 G: Fc fusion of VEGFR-3 residues 1-329 (D1-3); SEQ ID NOS: 43 and 44 | – | – | Yes | – |
| R-3 H: Fc fusion of VEGFR-3 residues 1-134; SEQ ID NOS: 45 and 46 | – | – | No | – |
| R-3 I: Fc fusion of VEGFR-3 residues 1-39, 132-329; SEQ ID NOS: 47 and 48 | – | – | No | – |
| R-3 J: Fc fusion of VEGFR-3 residues 1-39, 132-247; SEQ ID NOS: 49 and 50 | – | – | No | – |
| R-3 K: Fc fusion of VEGFR-3 residues 1-39, 132-229; SEQ ID NOS: 51 and 52 | – | – | No | – |
| R-3D1-R2D2+3/Ig: chimeric hIgG1Fc fusion: first Ig-like domain of VEGFR-3 and second and third Ig-like domains of VEGFR-2; SEQ ID NO: 125 | – | – | – | binding to VEGF-A (VEGF-A165): not VEGF-A; binding to VEGF-A, second experiment (VEGF-A165; second experiment, 35S-labeled VEGF-A165, SDS-PAGE): only weak binding; binding to VEGF-C [1]: exhibited binding |
| R-3D1-R2D2-R1D3/Ig: chimeric hIgG1Fc fusion: first Ig-like domain of VEGFR-3, second of VEGFR-2, third of VEGFR-1; SEQ ID NO: 128 | – | – | – | binding to VEGF-A (VEGF-A165): strongly bound; binding to VEGF-C [1]: strongly bound |
